Assay results from patent publication US10508147B2, “Anti-nodal antibodies and methods of using same” (ANN AND ROBERT H. LURIE CHILDREN'S HOSPITAL OF CHICAGO, priority 2014, dated 2019).
Where “and” joins values, the source holds several entries; their conditions need not be identical. Equal entries are not always repeated. Entries after “also recorded” stand apart in the source; their conditions may differ.

Experiments:
rhNodal = target: T1, rhNodal (Homo sapiens, UniProt Q96S42); assay: SPR direct binding of mAbs and 3D1 fragments to rhNodal immobilized on a CM5 sensor chip
T1 construct: E. coli derived His238 Leu347, with an N-terminal Met; purchased R&D System 3218ND; host or cells: E. coli
T1 sequence (Q96S42 238-347): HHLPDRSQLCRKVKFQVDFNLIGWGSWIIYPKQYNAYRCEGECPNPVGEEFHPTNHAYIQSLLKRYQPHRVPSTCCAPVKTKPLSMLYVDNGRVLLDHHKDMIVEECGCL
Method: Antibodies (mAbs) that selectively recognized wild type human Nodal (E49E50) were further screened in order to identify mAbs that bound full length Nodal. Surface plasmon resonance (SPR) biosensor direct binding assay was used. Recombinant human Nodal protein (rhNodal, E. coli derived His238 Leu347, with an N-terminal Met Accession # Q96S42, cat. num 3218ND, R&D System) was immobilized on a CM5 sensor chip.
SPR analyses were performed on a Biacore 3000 instrument from GE Healthcare, using CM5 sensor chips and certified HBS buffer (20 mM HEPES, 0.15 M NaCl, pH 7.4, P20, 0.005%). Protein immobilization was carried out following the canonical amine coupling chemistry using the surface immobilization wizard procedure, operating at 5 μL/min. Channels were activated with EDC/NHS for 7 min; for the binding assays of purified mAbs to Nodal protein, rhNodal, opportunely diluted in the pre-selected sodium acetate buffer pH 4.5, was coupled until a 4000 RU level was achieved. Residual reactive groups on the sensor chip surface were deactivated by addition of 1.0 M ethanolamine hydrochloride, pH 8.5. Antibody binding was tested at 20 μL/min injecting solutions of 3D1 (60 μL) in HBS-EP at increasing concentrations (6-100 nM). A 10 mM NaOH solution was used to regenerate the chip surface.
After the single-dose screening, dose-dependent binding analyses were carried out with the two antibodies, 3D1 and 5F10, able to bind the full-length protein. Binding of 3D1 was carried out at concentrations ranging between 6 and 100 nM. For 5F10 higher concentrations were required (100, 250, 500 and 750 nM). Dissociations were monitored for at least 500 s. To carry out the mapping of the 3D1 epitope, the whole antibody was immobilized at 5 μg/mL in 10 mM NaAc buffer pH 5 at a flow rate of 5 μL/min by standard amine coupling chemistry on a CM5 sensor chip. The immobilization level reached with the mAb was about 5350 RU. On another channel of the same sensor chip, the 3D1 Fab′ was immobilized at 10 μg/mL in 10 mM NaAc buffer pH 4.5 at a flow rate of 5 μL/min, following the standard amine coupling chemistry. The amount of immobilized Fab′ was about 2570 RU. Residual reactive groups were deactivated by 1M ethanolamine hydrochloride, pH 8.5. The blank channel was prepared as already described. Real-time binding analyses were performed at a flow rate of 20 μL/min, using HBS-EP buffer, injecting a constant sample volume of 60 μL. Peptides opportunely diluted in HBS-EP buffer were injected at the following concentrations: 0.5, 1, 2.5, 5, 10, and 20 μM. Dissociations were monitored for at least 500 s; the regeneration solution was 5 mM NaOH.
For each analysis, experimental sensorgrams were aligned, subtracted of blank signals and overlapped. All mathematical manipulations and fitting were performed using the BiaEvaluation software, vers. 4.1 from GE Healthcare. All experimental data gave optimal fittings when processed assuming a 1:1 Langmuir binding interaction.
SPR analyses were performed at 25° C. using HBS as running buffer. Protein immobilization was carried out following the canonical amine coupling chemistry using the surface immobilization wizard procedure, operating at 5 μL/min. Channels were activated with EDC/NHS [N-(3-dimethylaminopropyl)-N′-ethylcarbodiimide hydrochloride(EDC)/[…](NHS) for 7 min; for the binding assays, rhNodal, appropriately diluted in the pre-selected sodium acetate buffer pH 4.5, was coupled until a 4000 RU level was achieved. Residual reactive groups on the sensor chip surface were deactivated by addition of 1.0 M ethanolamine hydrochloride, pH 8.5. Antibody binding was tested at 20 μL/min injecting solutions of 3D1 (60 μL) in HBS at increasing concentrations (6.0 nM-100 nM). A 10 mM NaOH solution was used to regenerate the chip surface. […]

[1] = test system: A375SM human metastatic melanoma cells; assay: A375SM orthotopic xenograft in Nude mice; format: in vivo
Method: Experiments were carried out to determine the in vivo effects of 3D1 mAb on primary melanoma. To this end, 500,000 C8161 cells were injected subcutaneously in Nude mice. Palpable tumors were then injected directly with either 700 μg of total 3D1 mAb or IgG control antibody (alternate day intratumoral injection of 100 μg over 14 days). Mice were then sacrificed and subcutaneous tumors harvested and processed as previously described. To evaluate the effect of 3D1 mAb in the presence of the BRAF(V600E) mutation, a third orthotopic xenograft model was established in Nude mice via subcutaneous injection of approximately 150,000 A375SM human metastatic melanoma cells. Mice were treated IP with 3D1 mAb or IgG control, as described above, or 3 mg/kg of dabrafenib.
Four micron thick, formalin fixed, paraffin embedded tissue sections were prepared and immunohistochemistry was carried out on a Dako Plus autostainer (DAKO, Inc, Carpenteria, Calif.). Following antigen retrieval and blocking steps, sections were incubated in primary antibody for 60 mins, followed by appropriate biotinylated secondary antibody (Biocare Medical, Conrad, Calif.), and then streptavidin-horseradish peroxidase (Thermo Scientific Lab Vision). Color was developed with 3,3′-diaminobenzidine substrate (Thermo Scientific Lab Vision) and sections were counterstained with hematoxylin (Biocare Medical, LLC). As a negative control, adjacent serial sections were incubated with species appropriate irrelevant IgG (Jackson ImmunoResearch Labs) at the same concentration as primary antibodies. Similar to the lung tumor burden evaluation described above, mean percentage of positive staining±SEM was determined by 2 different observers, each calculating the ratio of positive cells/total number of cells×100 for 4 separate high power fields (63× objective) from at least 2 different mice per group.

B1: 3D1: mouse monoclonal anti-Nodal antibody raised against hNodal(44-67); light chain SEQ ID NO:1, heavy chains SEQ ID NO:2 and 3 (protein)
light: DIKMTQSPASLSASVGETVTITCRASGNIHNYLAWYQQKQGKSPQLLVYNAKTLADGVPSRFSGSGSGTQYSLKINSLQPEDFGSYYCQHFWSTPHVRCWDQAGTETEAW
heavy 1: VKLVESGGGLVKPGGSLKLSCAASGFTFSSYAMSWVRQTPEKRLEWVASISSGGCTYYPDSVKGRFTISRDNARNILYLQMSSLRSEDTAMYYCARGSMITADGNSLLLCYGLLGSRNLXHR
heavy 2: VKLVESGGGLVQPGGSMKLSCVASGFTFRNYWMSWVRQSPEKGLEWVAEIRLKSDNYAARYAESVKGKFTISRDDSKSRLYLQMNSLRAEDTGIYYCTGIRRFAYWGQGTL
modifications: not fully specified; (120)..(120) Xaa can be any naturally occurring amino acid
Work on B1 yielded an average kd (rhNodal) of 0.000655 s⁻¹, a Kd (rhNodal; Average over concentrations) of 1.42 nM and a ka (rhNodal; Average over concentrations) of 695000 M⁻¹ s⁻¹. For the same molecule, the kd (rhNodal; Average over concentrations) was 0.000655 s⁻¹, the Kd (rhNodal; Example 1, hNodal immobilized on CM5 chip, antibody injected) was roughly 1.3 nM and the Kd (rhNodal; Examples 2 and 4, running text, averaged over dose-dependent runs) was 1.42 nM and 1.4 nM. The Kd (rhNodal; analyte injected at 6 nM) was 0.491 nM, the ka (rhNodal; analyte injected at 6 nM) was 1.28e+06 M⁻¹ s⁻¹ and the kd (rhNodal; analyte injected at 6 nM) was 0.000629 s⁻¹. It also gave a Kd (rhNodal; analyte injected at 12 nM) of 0.698 nM, a ka (rhNodal; analyte injected at 12 nM) of 979000 M⁻¹ s⁻¹ and a kd (rhNodal; analyte injected at 12 nM) of 0.000683 s⁻¹. For the same molecule, the Kd (rhNodal; analyte injected at 25 nM) was 0.968 nM, the ka (rhNodal; analyte injected at 25 nM) was 642000 M⁻¹ s⁻¹ and the kd (rhNodal; analyte injected at 25 nM) was 0.000622 s⁻¹. For the same molecule, the Kd (rhNodal; analyte injected at 50 nM) was 1.93 nM, the ka (rhNodal; analyte injected at 50 nM) was 361000 M⁻¹ s⁻¹ and the kd (rhNodal; analyte injected at 50 nM) was 0.000697 s⁻¹. The Kd (rhNodal; analyte injected at 100 nM) was 3.03 nM, the ka (rhNodal; analyte injected at 100 nM) was 212000 M⁻¹ s⁻¹ and the kd (rhNodal; analyte injected at 100 nM) was 0.000644 s⁻¹. The “ability to bind the full-length rhNodal protein” value (rhNodal; single-dose SPR screening, mAbs at 100 nM) was “able to bind the full-length rhNodal protein”, the “mean percentage (±SEM) of nuclear P-Smad2” value ([1]; IHC, N=4) was 28.1%±2.6% and the tumor volumes ([1]; after 8 days, vs IgG control, listed as 3D1 mAb) was “significantly reduced; also recorded: significantly smaller”.
